Data from patent US20210101970A1 (Pfizer, published 2021).

Legend:
human CXCR5 [1] = target: T1, human CXCR5 (human, UniProt P32302 1-372); test: flow cytometry on Raji cells
T1 construct: also called hCXCR5; C-X-C chemokine receptor type 5
T1 sequence: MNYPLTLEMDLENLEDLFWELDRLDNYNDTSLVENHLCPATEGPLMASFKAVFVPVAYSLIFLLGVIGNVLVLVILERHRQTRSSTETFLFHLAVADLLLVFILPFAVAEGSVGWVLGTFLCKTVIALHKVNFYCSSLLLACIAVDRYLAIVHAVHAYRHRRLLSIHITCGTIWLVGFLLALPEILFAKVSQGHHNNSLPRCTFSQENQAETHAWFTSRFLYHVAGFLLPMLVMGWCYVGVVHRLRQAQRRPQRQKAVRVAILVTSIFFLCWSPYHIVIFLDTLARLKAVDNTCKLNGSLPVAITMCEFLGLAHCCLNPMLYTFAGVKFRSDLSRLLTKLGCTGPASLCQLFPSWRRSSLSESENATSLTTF

CXCR4 = target: T2, CXCR4 (human, UniProt P61073 1-352); test: flow cytometry (GMFI) on Jurkat cells, which express CXCR4; chimeric antibody, goat anti-human PE
T2 construct: whole, on cells
Experimental: To determine the specificity of the antibodies for CXCR5, the binding of the antibodies to cells expressing other […] was assessed. Briefly, FlowCellect chemokine receptor cell lines expressing CXCR1, CXCR2, or CXCR3 (EMD Millipore, Billerica, Mass.), and Jurkats (ATCC, Manassas, Va.), which express CXCR4, were stained with 5 μg/ml or 10 μg/ml of each anti-CXCR5 chimeric antibody. The cells were then incubated with goat anti-human conjugated with PE (Southern Biotech, Birmingham, Ala.) prior to analysis by flow cytometry using a FACSVerse Analyzer (BD Biosciences, Franklin Lakes, N.J.).

cynomolgus monkey CXCR5 [2] = target: T3, cynomolgus monkey CXCR5 (cynomolgus monkey, UniProt P32302 1-372 (human entry)); test: flow cytometry on cynoCXCR5-300.19 cells, fucosylated chimeric antibody
T3 construct: also called cynoCXCR5; NHP CXCR5
T3 chain: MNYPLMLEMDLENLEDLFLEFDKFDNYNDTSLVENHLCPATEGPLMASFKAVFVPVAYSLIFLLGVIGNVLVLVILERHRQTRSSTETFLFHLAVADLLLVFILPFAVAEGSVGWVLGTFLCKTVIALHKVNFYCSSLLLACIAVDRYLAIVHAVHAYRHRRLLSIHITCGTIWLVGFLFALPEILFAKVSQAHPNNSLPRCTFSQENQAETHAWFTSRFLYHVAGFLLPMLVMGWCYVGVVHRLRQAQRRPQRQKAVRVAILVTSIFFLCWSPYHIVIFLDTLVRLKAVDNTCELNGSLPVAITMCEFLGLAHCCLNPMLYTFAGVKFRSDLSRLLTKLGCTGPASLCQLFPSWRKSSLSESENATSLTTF

human CXCR5 [3] = target: T1, human CXCR5; test: flow cytometry on Raji cells, fucosylated chimeric antibody
Experimental: The fucosylated chimeric antibodies were then purified using protein A columns. The apparent affinity (cell binding EC50s) of chimeric antibody binding to Raji cells was determined by flow cytometry using a FACSVerse Analyzer (BD Bioscience, Franklin Lakes, N.J.) and are shown in Table 3.

human CXCR5 [4] = target: T1, human CXCR5; test: flow cytometry, human tonsil Tfh cells
Experimental: Following centrifugation, red blood cell lysis was performed on the pellet using an ammonium chloride lysis buffer. Platelets were removed using a low speed centrifugation (200×g) for 10 minutes in Phosphate-Buffered Saline (PBS)/2% FBS/2 mM Ethylenediaminetetraacetic acid (EDTA). CD4+ T cells were purified out of the TMC mixture using an EasySep™ Human CD4+ T Cell Enrichment Kit, according to the manufacturer's instructions ([…] Technologies, Vancouver, BC, Canada).
Following isolation, PBMCs were plated at a density of 1.0×10⁵ cells per well and CD4+ TMCs were plated at a density of 2.0×10⁵ cells per well in isolation buffer (PBS containing 1% FBS and 1 mM EDTA) in 96 well U-bottom plates. The plates were then centrifuged at 1500 rpm for 5 minutes at room temperature. PBMCs and CD4+ TMCs were resuspended in Fluorescence-activated cell sorting (FACS) buffer (PBS containing 1% FBS) containing human crystallized fragment Fc block (2 μL per well; Biolegend) and 4-fold serial dilutions of the antibodies (11-point dilution series, beginning at 5000 ng/mL for PBMCs and 312.5 ng/mL for CD4+ TMCs) and incubated on ice for 2 hours. PBMCs and CD4+ TMCs were then washed with FACS buffer 3 times and resuspended in 50-100 μL of FACs buffer containing fluorescent-conjugated antibodies for staining lymphocyte subsets and a fluorescent-conjugated secondary antibody against human Ig to detect CXCR5 monoclonal antibodies (mAbs). After incubation for 30 minutes at 4° C., PBMCs and CD4+ TMCs were washed with FACS buffer 2 times and resuspended in 125 μL of 0.5% paraformaldehyde (PFA) in PBS. Plates were stored at 4° C. until analysis by flow cytometry (BD LSRFortessa™ Cell Analyzer, BD Biosciences, Franklin Lakes, N.J.).
The cell binding titration curves were generated by plotting the gMFI of the antigen binding population against the log of CXCR5 antibody concentration. EC₅₀ values were determined using GraphPad Prism® (version 6.0, GraphPad Software, Inc, San Diego, Calif.) nonlinear-regression curve fits and a sigmoidal log of agonist dose-response model, according to the following equation

cynomolgus monkey CXCR5 [5] = target: T3, cynomolgus monkey CXCR5; test: flow cytometry, cynomolgus PBMC B cells
Procedure, shortened: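 Human and cynomolgus PBMCs stained with 4-fold serial antibody dilutions (11 points from 5000 ng/mL) plus Fc block, 2 h on ice, then lineage markers and anti-human Ig secondary 30 min at 4 °C. gMFI of binding population read by flow cytometry; EC50 from sigmoidal fit of equilibrium binding curves.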

T2 sequence (P61073 whole entry): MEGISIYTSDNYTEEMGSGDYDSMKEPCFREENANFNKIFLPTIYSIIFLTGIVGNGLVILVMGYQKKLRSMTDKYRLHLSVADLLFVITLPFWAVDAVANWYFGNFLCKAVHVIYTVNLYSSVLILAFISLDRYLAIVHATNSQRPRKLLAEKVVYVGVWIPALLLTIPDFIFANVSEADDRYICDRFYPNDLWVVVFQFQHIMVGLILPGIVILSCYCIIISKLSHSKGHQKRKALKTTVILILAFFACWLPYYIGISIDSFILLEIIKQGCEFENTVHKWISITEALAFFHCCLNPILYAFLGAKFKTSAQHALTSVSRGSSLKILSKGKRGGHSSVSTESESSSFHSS

Binder | EC50 (human CXCR5 [1]) [nM] | binding result (CXCR4) | EC50 (cynomolgus monkey CXCR5 [2]) [nM] | EC50 (human CXCR5 [3]) [nM] | EC50 (human CXCR5 [4]) [nM] | EC50 (cynomolgus monkey CXCR5 [5]) [nM]
2C9 (reference antibody) (antibody, human IgG1, kappa, V domains shown, fucosylated) VH: EVQLVESGGGLVKPGGSLRLSCAASGFTFSTNAMNWVRQAPGKGLERVARIRSKSNNYATYYADSVKDRFTISRDDSKNTLYLQMNSLKTEDTAVYYCVTMIPFAYWGQGTLVTVSS VL: not shown | 0.0999 | – | – | – | – | –
Chimeric 11G2 (antibody, human IgG1, kappa, V domains shown, mouse V regions on human IgG1/kappa; also called 11G2 (chimeric)) VH: EVKLVESGGGLVQPGGSLRLSCATSGFTFTDFYMSWVRQPPGRALEWLGFIRNKANGYTTEYSASVKGRFTISRDNSQSILYLQMNTLRAGDSATYYCVRVYGSTLHYWGQGTILTVSS VL: DVVVTQSPDSLAVSLGQRATISCRASESVEYHGTSLMHWYQQKPGQPPKLLIYAASNVESGVPARFSGSGSGTDFSLNIHPVEEGDIAMYFCQQSRKVPWTFGGGTKLEIKR | – | no binding (tested: 5 or 10 µg/ml (not on the sheet)) | 0.0242 | 0.0175 | 0.00846 | 0.00695
Afucosyl humanized 11G2 154/155 (antibody, human IgG1, kappa, V domains shown, afucosylated Fc glycan (Asn297), also called afucosyl h11G2 XC154/XC155; afucosylated h11G2 VL XC154/VH XC155) VH: EVQLVESGGGLVQPGGSLRLSCAASGFTFTDFYMSWVRQAPGKGLEWVGFIRNKANGYTTEYSASVKGRFTISRDNAKNSLYLQMNSLRAEDTAVYYCARVYGSTLHYWGQGTLVTVSS VL: DIQMTQSPSSLSASVGDRVTITCRASESVEYHGTSLMHWYQQKPGKAPKLLIYAASNVESGVPSRFSGSGSGTDFTLTISSLQPEDFATYYCQQSRKVPWTFGQGTKVEIKR | – | – | – | – | 0.0106 | 0.00132
